Data on four molecules can be found in patent publication CN102875678A (WUXI PROGRAMMED ARTIFICIAL MOLECULAR EVOLUTION CO LTD, dated 2013).

A value given as a limit tells only on which side of the number the result lay.

In assay [1] the target is 重组人CD20蛋白 (human) (UniProt P11836). Kind of assay: Friguet method, Fab and human CD20 in solution, ELISA on immobilised human CD20.
For assay [2] the target is unchanged. Kind of assay: Friguet method, full-length antibody and human CD20.
The target in assay [3] is hCD20 on B cell lines (Ramos, DHL-4, Daudi, Raji) (human) (UniProt P11836). As to the kind of experiment: cell-based or functional assay.
Another assay addresses T1, 重组人CD20蛋白 (human, UniProt P11836 1-297, limits assumed).
T1 construct: also called hCD20
T1 sequence (looked up): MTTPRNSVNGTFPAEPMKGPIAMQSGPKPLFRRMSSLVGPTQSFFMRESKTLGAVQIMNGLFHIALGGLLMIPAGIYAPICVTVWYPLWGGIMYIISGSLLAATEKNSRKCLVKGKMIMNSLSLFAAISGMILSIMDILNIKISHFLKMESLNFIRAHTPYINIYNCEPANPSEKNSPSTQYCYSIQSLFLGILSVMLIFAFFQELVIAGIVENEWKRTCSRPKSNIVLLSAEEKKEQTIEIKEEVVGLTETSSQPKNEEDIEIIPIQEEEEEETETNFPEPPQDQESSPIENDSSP
Kind of assay: Friguet method, full-length antibody and human CD20.

C2B8 Fab showed a Kd with 重组人CD20蛋白 (human) [1] of 1.83 nM. For C2B8 (即Rituxan), full length (antibody), the Kd in the assay with 重组人CD20蛋白 (human) [2] was found to be 3.51 nM. This lies in the single-digit nanomolar range. In the case of “2F2 (即HuMax-CD20), full length (antibody)”, in assay [3], the ADCC靶细胞裂解 (Raji细胞, MNC效应细胞, 51Cr释放) turned out to be 35% and the CDC细胞裂解比例 (Daudi和Raji细胞, 10μg/ml抗体, 人血清) was over 80%. Also, in the assay with 重组人CD20蛋白, the Kd is 0.121 nM.

B1: 全长8G3 (F8G3) (antibody)
chain 1: EVQLVESGGGLVQPGESLRLSCAGSGFTFNDYAMHWVRQMPGKGLEWVSTIYPW
chain 2: EIVLTQSPATLSLSPGERATLSCRASQFVGFYIHWYQQKPGQAPRLLIYAASERATGVPSRFSGSGSGTDFTLTISSLEPEDFAVYYCQQWLNNPFTFGQGTRLEII
In the assay with 重组人CD20蛋白, B1 returned a Kd of 0.037 nM.
